Experimental data taken from patent publication US20080227700A1, “Compositions and Methods for Treatment of Protein Misfolding and Protein Aggregation Diseases” (priority 2004, published 2008).

Assays:
[1] = target: T1, equine alcohol dehydrogenase (ADH) (Equus caballus, UniProt P00327); assay: Protein pin array interaction with alcohol dehydrogenase; format: binding; settings: ADH as ligand, unheated and pre-heated
T1 construct: purchased
Excerpt: (§1) Synthesis of Pins, binding and detection of peptides binding to ligand proteins. The αB crystallin protein pin array was used to measure the interaction between peptides and chaperone target proteins including bovine βH crystallin, human γD crystallin, equine alcohol dehydrogenase (ADH) and porcine citrate synthase (CS) as described (FIG. 12). Ghosh and Clark, Protein Sci 14: 684-95, 2005.
(§2) Refer to the methods section for detailed protocols. The absorbance corresponding to the blue coloration in each well was measured at λ=450 nm and plotted against the amino acid sequence of the corresponding peptide in that well (FIGS. 13 and 14). Wells containing peptides that have strong interactions with target proteins are dark blue and wells containing peptides that have weak or no interaction with target proteins are light blue or clear.
(§3) The purity of the target proteins used in the pin array assays, bovine βH crystallin, human γD crystallin, equine alcohol dehydrogenase (ADH) and porcine citrate synthase (CS) were determined to be >90% by SDS-PAGE. In addition, primary antibodies for each target protein were specific to that target protein and consequently contaminating proteins that may bind to the peptides will not be detected. Eighty-four sequential and overlapping peptide fragments corresponding to residues 1-175 of human αB crystallin were synthesized employing a simultaneous peptide synthesis strategy developed by Geysen, called Multipin Peptide Synthesis (Mimotopes, San Diego, Calif.). Geysen, Southeast Asian J Trop Med Public Health 21: 523-33, 1990; Chin et al., J Org Chem 62: 538-539, 1997. Peptides were immobilized on derivatized polyethylene pins arranged in a microtiter ELISA plate format. Each peptide was eight amino acids in length and consecutive peptides were offset by two amino acids. All peptides were bound covalently to the surface of the plastic pins. The first peptide was […] for human αB crystallin.
(§4) Ghosh and Clark, Protein Sci 14: 684-95, 2005. […] The intensity of the blue color in the wells was measured at 450 nm using an ELISA plate-reader (BioTek, Winooski, Vt.). The intensity of the blue color (plotted on the X-axis) was a measure of the interaction between αB crystallin peptides (plotted on the Y-axis) and target proteins. To measure the effect of temperature on the interactions between interactive peptides and the target proteins, the target proteins were heated in a water-bath at 45° C. for fifteen minutes prior to use. Pin arrays are unable to differentiate between monomers, dimers or oligomers of target proteins that exist in solution. Instead, pin arrays are very sensitive detectors of interactions between individual peptides and the entire population (monomers, dimers or oligomers) of specific target proteins that may exist in solution under specific conditions. Each target protein was assayed two to five times. A single pin array was used for all experiments and no change in interactions was observed after more than thirty repetitions. The last three peptides of the protein pin array, 163REEKPAVT170, 165EKPAVTAA172, 167PAVTAAPK174, correspond to the epitope (163REEKPAVTAAPKK175) recognized by the primary antibody for human αB crystallin. A positive reaction is observed for these three peptides in the absence of human αB crystallin as the ligand due to direct binding of the anti-human αB crystallin antibody to these three peptides. The loss of efficiency for the pin array was measured using this assay. The loss of efficiency for the pin array was determined to be <5% by after more than 30 assays.
(§5) The Y-axis lists the amino acid sequences of the 8-mer peptides that are immobilized sequentially in a 96-well format. […]

bovine βH crystallin = assay: Protein pin array interaction with βH crystallin; format: binding; settings: unheated βH crystallin; similar maxima with βH crystallin pre-heated at 45° C. for fifteen minutes
Excerpt: as §1, §2, §3, §4
(§6) The amino acid sequences of each 8-mer human αB crystallin peptide immobilized sequentially on 84 pins in a 96-well ELISA plate format are listed on the Y-axis. […]

beta amyloid = beta amyloid (Homo sapiens, UniProt P05067); assay: αB crystallin protein pin array screened for binding to beta amyloid; settings: immobilized 8-mer peptide; absorption at 450 nm; assayed 2-5 times
Excerpt: αB Crystallin peptides that bind the target protein beta-amyloid were identified by screening an αB crystallin protein pin array, which provides a systematic method for evaluating interactions between peptides corresponding to residues 1-175 of human αB crystallin and selected target proteins in a parallel and simultaneous manner.
Peptides were synthesized on derivatized polyethylene pins arranged in a microtiter plate format. Each peptide was 8 amino acids in length and consecutive peptides were offset by 2 amino acids. All peptides were covalently bonded to the surface plastic pins. The first immobilized peptide was 1MDIAIHHP8 and the last peptide was 168PAVTAAPK175 for the human αB crystallin.
After synthesis, the pins were pre-coated at room temperature with 2% Bovine Serum Albumin (BSA), 0.1% Tween-20 and 0.1% Sodium azide in 10 mM phosphate buffered saline pH 7.2 (PBS) for 1 hr, and washed three times for 10 mins each with 10 mM PBS. To screen for binding to the peptides, fixed concentrations of the target protein beta amyloid was dissolved in 10 mM PBS, containing 0.05% Tween-20, added to each well and incubated for 1 hr at room temperature. The pin array was washed three times for 10 mins each with 10 mM PBS, containing 0.05% Tween-20. Monoclonal or polyclonal primary antibodies for the target protein beta amyloid was diluted into PBS buffer, added to each well and incubated for 1 hr at room temperature. Subsequently, the pin array was washed three times for 10 mins each with 10 mM PBS containing 0.05% Tween-20. Anti-rabbit horse-radish peroxidase conjugate secondary antibodies was diluted into PBS buffer, added to each well and incubated for 1 hr at room temperature. The pin array was washed three times for 10 mins each with 10 mM PBS containing 0.05% Tween-20. A chromogenic substrate of horse-radish peroxidase 3,3′,5,5′-Tetramethylbenzidine (TMB) (Pharmingen, San Diego, Calif.) which is colorless was added, and the reaction was carried out for 45 min.
The reaction was stopped by adding 6N sulfuric acid, which changes the color from blue to yellow. The absorption at 450 nm was measured by an ELISA reader (BioTek, Winooski, Vt.).
The pin array was regenerated by sonication in a water bath (VWR Aquasonic, West Chester, Pa.) with 100 mM PBS, containing 1% Sodium dodecyl sulfate (SDS) and 0.1% 2-Mercaptoethanol @ 60° C. for 10 mins. Next, the pin array was rinsed three times in deionized water, preheated to 60° C. for 30 secs each time, and shaken in water preheated at 60° C. for 30 min. The pin array was then washed with methanol at 60° C. for 15 secs and air-dried and stored @−20° C. for future use. Each target protein was assayed 2-5 times against the human αB crystallin protein pin array peptides to verify the reproducibility of the results. Peptides numbered 5, 7, 8, 9, 13, 19, 22, 23, 24, 27, 35, 38, 45, 51, 52, 56, 57, 61, 66, 71, 72, and 79 in Table 2 reproducibly tested positive in the protein pin assay.

[2] = target: T2, porcine citrate synthase (CS) (Sus scrofa, UniProt P00889); assay: Protein pin array interaction with citrate synthase; format: binding; settings: CS as target protein, unheated and pre-heated
T2 construct: purchased
T2 sequence (P00889 28-464): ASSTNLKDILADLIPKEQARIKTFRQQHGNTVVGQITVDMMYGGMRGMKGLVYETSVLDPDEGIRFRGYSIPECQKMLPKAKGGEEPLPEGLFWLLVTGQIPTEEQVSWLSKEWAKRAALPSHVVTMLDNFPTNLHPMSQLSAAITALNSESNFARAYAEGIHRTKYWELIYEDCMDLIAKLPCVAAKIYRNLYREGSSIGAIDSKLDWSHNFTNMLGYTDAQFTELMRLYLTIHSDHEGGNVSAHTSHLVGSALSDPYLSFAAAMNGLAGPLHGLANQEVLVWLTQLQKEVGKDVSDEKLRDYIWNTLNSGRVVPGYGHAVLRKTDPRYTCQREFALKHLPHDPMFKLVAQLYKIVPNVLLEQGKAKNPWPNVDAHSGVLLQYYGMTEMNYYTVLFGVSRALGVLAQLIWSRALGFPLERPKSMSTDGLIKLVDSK
Excerpt: as §1, §2, §3, §4, §5

γD crystallin = target: T3, γD crystallin (Homo sapiens, UniProt P07320); assay: Protein pin array interaction with γD crystallin; format: binding; parameters: purchased; settings: unheated γD crystallin; similar peptide sequences with γD crystallin pre-heated at 45° C. for fifteen minutes
T3 sequence (P07320 1-174): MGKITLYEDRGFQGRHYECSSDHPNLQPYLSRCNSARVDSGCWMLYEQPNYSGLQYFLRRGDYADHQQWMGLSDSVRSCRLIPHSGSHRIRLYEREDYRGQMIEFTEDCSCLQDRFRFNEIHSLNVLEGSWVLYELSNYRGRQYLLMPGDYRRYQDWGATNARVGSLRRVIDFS
Excerpt: as §1, §2, §3, §4, §6

T1 sequence (P00327 whole entry): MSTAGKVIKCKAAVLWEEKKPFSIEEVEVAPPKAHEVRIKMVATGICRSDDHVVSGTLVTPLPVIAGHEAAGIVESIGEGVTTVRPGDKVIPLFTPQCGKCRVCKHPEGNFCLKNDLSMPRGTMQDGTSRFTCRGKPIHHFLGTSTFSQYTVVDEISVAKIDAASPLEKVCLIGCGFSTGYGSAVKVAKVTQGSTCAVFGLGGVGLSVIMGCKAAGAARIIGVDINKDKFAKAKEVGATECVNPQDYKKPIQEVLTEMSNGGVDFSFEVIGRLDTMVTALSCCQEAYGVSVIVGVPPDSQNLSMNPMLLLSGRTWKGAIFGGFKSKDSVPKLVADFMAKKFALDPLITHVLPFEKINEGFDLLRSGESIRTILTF

| Sequence | absorbance at λ=450 nm, interaction with ADH [1] | absorbance at λ=450 nm, interaction with βH crystallin (bovine βH crystallin) | protein pin assay result with target protein beta amyloid (beta amyloid) | absorbance at λ=450 nm, interaction with CS [2] | absorbance at λ=450 nm, interaction with γD crystallin (γD crystallin) |
| --- | --- | --- | --- | --- | --- |
| SREFHRKY [Peptide 58] | Maximum absorbances | – | – | – | – |
| RLEKDRFS [Peptide 35] | Maximum absorbances | Maximum absorbances | positive | – | – |
| FYLRPPSF [Peptide 24] | – | Maximum absorbances | positive | absorbance maxima | maximum absorbances |
| KHEERQDE [Peptide 52] | – | – | positive | – | – |
| RTIPITRE [Peptide 79] | Maximum absorbances | Maximum absorbances | positive | absorbance maxima | – |
| PPSFLRAP [Peptide 26] | – | Maximum absorbances | – | – | – |
| SLSPFYLR [Peptide 22] | Maximum absorbances | – | positive | absorbance maxima | maximum absorbances |
| DQFFGEHL [Peptide 13] | – | – | positive | – | maximum absorbances |
| LRPPSFLR [Peptide 25] | Maximum absorbances | – | – | – | – |
| FISREFHR [Peptide 57] | – | Maximum absorbances | positive | absorbance maxima | – |
| GVLTVNGP [Peptide 71] | Maximum absorbances | Maximum absorbances | positive | – | maximum absorbances |
| KYRIPADV [Peptide 61] | – | Maximum absorbances | positive | – | – |
| FFGEHLLE [Peptide 14] | Maximum absorbances | – | – | – | – |
| EFHRKYRI [Peptide 59] | – | – | – | – | maximum absorbances |
| LKVKVLGD [Peptide 45] | – | Maximum absorbances | positive | – | – |
| IAIHHPWI [Peptide 2] | – | – | – | – | maximum absorbances |
| LTVNGPRK [Peptide 72] | – | – | positive | absorbance maxima | – |
| FHSPSRLF [Peptide 9] | – | – | positive | – | – |
| HGKHEERQ [Peptide 51] | – | – | positive | – | – |
| WIRRPFFP [Peptide 5] | Maximum absorbances | Maximum absorbances | positive | absorbance maxima | maximum absorbances |
| FSVNLDVK [Peptide 38] | Maximum absorbances | Maximum absorbances | positive | absorbance maxima | maximum absorbances |
| HGFISREF [Peptide 56] | – | – | positive | – | maximum absorbances |
| LRAPSWFD [Peptide 28] | – | – | – | absorbance maxima | – |
| SFLRAPSW [Peptide 27] | – | – | positive | – | maximum absorbances |
| FPFHSPSR [Peptide 8] | – | – | positive | absorbance maxima | – |
| LFPTSTSL [Peptide 19] | Maximum absorbances | – | positive | – | – |
| SPFYLRPP [Peptide 23] | – | Maximum absorbances | positive | – | – |
| PFFPFHSP [Peptide 7] | Maximum absorbances | – | positive | – | maximum absorbances |
